Molecular target: DENV NS2B3 protease, active site mutant NS2B3^S135A (coexpressed NS2B hydrophilic core and NS3 prote (Dengue virus (serotype not given)))
Assay: native gel or EMSA

Substance | Kd
cGAS cleavage product C-terminal (CP-C, 125-522) (from UniProt Q8N884 125-522) (domain or fragment) | 39.2 µM
full-length human cyclic GMP-AMP synthase (cGAS) (from UniProt Q8N884 1-522) (natural protein) | 21.6 µM

From article PMC10011430
